What all share (assay): EMSA; no ATP, 5 mM Mg2+; 35 mM Tris-HCl pH 7.5, 1 mM DTT, 5 mM MgCl2, 60 mM KCl, 0.1 mg/ml BSA, no ATP, 30 min at 30 C; 5 nM ssDNA
What all share (settings): protein: recombinant; tags: N-terminal superfolder GFP; Ni-NTA purified; label: 5' Alexa647

One data set deals with T1, Pif1 WT (GFP-Pif1) (Saccharomyces cerevisiae, UniProt P07271 40-859).
T1 sequence: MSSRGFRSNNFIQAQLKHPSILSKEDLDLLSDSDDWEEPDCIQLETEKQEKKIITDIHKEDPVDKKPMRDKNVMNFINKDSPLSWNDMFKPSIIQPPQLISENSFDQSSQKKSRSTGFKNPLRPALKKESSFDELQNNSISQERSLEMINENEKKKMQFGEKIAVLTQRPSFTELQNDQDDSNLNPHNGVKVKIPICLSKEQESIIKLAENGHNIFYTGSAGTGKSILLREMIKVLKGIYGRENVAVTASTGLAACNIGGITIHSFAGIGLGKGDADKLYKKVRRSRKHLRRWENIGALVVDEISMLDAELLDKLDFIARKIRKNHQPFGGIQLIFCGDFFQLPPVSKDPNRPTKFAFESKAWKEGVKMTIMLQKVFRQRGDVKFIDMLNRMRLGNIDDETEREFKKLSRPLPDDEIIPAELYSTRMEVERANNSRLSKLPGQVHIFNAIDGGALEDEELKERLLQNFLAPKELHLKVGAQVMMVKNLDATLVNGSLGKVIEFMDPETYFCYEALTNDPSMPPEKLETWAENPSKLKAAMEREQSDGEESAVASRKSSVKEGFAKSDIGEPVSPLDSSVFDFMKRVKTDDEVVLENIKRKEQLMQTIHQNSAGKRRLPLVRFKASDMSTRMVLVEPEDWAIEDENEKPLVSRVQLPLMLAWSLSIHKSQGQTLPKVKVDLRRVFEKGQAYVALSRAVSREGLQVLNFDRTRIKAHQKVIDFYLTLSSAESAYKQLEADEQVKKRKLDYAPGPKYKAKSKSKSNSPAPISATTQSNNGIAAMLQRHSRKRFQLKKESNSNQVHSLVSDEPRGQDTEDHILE

A further data set concerns the target T2, GFP-Pif1 L310A (Saccharomyces cerevisiae, UniProt P07271 40-859, L310A).
T2 sequence: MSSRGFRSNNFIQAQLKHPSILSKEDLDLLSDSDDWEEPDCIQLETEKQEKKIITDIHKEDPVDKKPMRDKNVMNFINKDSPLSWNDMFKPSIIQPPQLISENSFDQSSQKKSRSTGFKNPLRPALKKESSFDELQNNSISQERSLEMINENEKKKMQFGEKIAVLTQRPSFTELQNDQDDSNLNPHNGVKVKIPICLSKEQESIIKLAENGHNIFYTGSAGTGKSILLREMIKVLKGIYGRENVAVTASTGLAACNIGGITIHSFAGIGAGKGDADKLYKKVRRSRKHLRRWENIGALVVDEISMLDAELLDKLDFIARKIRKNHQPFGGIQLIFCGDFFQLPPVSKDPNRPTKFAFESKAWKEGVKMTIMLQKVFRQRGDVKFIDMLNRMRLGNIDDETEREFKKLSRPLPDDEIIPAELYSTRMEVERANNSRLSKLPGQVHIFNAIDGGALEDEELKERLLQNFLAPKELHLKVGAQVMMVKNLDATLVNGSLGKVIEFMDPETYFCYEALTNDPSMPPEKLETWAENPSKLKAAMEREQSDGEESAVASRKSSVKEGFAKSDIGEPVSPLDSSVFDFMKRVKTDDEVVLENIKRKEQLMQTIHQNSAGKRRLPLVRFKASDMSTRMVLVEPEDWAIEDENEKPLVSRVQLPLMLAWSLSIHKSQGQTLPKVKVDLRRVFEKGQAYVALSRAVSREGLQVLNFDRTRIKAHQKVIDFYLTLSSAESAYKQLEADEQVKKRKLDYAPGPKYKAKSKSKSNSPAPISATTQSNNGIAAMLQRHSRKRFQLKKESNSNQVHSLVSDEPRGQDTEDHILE

The target of the next data set is T3, GFP-Pif1 E724A (Saccharomyces cerevisiae, UniProt P07271 40-859, E724A).
T3 sequence: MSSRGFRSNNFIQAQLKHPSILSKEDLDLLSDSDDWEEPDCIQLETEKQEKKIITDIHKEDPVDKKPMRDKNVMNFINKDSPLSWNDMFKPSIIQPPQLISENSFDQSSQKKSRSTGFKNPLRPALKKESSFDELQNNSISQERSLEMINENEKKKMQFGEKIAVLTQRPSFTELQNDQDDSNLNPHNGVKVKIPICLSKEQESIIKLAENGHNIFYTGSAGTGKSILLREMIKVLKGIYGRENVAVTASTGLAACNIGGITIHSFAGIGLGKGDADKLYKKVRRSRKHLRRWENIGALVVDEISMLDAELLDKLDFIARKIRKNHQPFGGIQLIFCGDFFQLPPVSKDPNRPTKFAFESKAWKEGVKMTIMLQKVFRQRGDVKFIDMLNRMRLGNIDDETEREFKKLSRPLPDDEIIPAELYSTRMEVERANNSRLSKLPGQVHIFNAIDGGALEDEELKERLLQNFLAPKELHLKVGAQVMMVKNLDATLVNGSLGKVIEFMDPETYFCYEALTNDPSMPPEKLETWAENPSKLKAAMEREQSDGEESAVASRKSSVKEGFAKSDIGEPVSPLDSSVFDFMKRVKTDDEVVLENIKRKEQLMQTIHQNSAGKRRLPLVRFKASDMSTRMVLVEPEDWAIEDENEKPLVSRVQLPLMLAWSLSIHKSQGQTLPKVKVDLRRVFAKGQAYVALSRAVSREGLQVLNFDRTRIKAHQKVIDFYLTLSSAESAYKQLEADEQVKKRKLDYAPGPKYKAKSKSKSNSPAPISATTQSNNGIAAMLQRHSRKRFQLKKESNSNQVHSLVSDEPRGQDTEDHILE

Turning to GCTAGCAGTAGCCAGCATCGAACGTACGATCGGTAACGTA (ssDNA) [40-nt ssDNA], the values for the dissociation constant (Kd) with Pif1 WT (GFP-Pif1), with GFP-Pif1 L310A and with GFP-Pif1 E724A were 12.6 ± 3.81 nM, 27.8 nM and 19 nM, respectively.

The values are drawn from PMC10279920, “Single-molecule visualization of Pif1 helicase translocation on single-stranded DNA” (The Journal of Biological Chemistry, 2023).
